According to paper PMC9408429, “Thermodynamic Swings: How Ideal Complex of Cas9–RNA/DNA Forms”:

Biological target: Cas9 (UniProt Q99ZW2 1-1368)
Assay: ITC; RNA 62.5 uM into Cas9 5 uM; n = 2.10; triplicate; dH -399.10 kcal/mol; ITC, 20 mM HEPES pH 7.6, 150 mM NaCl, 25 °C, 200 rpm; no Mg2+ listed
Settings: protein: recombinant; intramolecular helices; dimer possible

Chain of Cas9 (Q99ZW2 whole entry): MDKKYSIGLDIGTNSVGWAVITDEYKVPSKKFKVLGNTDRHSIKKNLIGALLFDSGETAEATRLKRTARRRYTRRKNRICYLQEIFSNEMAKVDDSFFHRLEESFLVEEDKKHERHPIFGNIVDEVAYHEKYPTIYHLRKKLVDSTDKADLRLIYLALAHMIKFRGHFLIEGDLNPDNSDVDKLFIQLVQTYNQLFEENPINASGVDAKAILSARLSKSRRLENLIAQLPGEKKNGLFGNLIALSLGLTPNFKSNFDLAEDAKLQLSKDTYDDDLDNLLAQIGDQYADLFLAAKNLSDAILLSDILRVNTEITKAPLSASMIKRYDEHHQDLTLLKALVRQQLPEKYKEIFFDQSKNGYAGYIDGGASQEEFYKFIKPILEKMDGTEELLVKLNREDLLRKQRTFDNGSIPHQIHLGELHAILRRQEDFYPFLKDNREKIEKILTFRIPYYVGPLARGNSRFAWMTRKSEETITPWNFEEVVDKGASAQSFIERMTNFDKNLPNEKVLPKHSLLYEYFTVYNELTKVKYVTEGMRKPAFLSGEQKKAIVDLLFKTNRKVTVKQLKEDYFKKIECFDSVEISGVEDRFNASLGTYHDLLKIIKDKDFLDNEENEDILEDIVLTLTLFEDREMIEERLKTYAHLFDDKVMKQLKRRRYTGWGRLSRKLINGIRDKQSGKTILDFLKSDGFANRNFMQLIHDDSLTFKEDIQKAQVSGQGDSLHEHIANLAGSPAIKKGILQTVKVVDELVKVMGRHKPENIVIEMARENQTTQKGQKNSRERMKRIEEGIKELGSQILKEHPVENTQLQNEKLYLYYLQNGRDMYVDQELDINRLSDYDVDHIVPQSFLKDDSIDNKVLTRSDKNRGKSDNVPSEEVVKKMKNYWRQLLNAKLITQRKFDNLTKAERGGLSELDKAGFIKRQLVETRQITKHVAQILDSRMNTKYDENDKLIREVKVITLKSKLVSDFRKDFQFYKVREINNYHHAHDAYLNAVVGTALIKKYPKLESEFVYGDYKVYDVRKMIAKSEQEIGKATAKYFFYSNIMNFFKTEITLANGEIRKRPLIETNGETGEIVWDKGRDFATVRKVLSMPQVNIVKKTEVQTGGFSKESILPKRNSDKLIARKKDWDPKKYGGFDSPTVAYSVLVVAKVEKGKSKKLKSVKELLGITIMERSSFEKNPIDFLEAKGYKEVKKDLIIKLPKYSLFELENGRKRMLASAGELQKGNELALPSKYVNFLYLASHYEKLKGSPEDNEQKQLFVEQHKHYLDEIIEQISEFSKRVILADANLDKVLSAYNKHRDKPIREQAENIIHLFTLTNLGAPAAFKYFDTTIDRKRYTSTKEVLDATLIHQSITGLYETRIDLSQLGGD

B1: RNA (sgRNA) (structured_RNA)
RNA: GGUUGGACAUGCUCGACAUUCGUUUUAGAGCUAGAAAUAGCAAGUUAAAAUAAGGCUAGUCCGUUAUCAACUUGAAAAAGUGGCACCGAGUCGGUGCUUUUUU
Kd: 2.21 µM
